Laboratory results published in patent US11497788B2, “Supramolecular glycosaminoglycans” (Northwestern University, priority 2015, dated 2022).

Key:
[1] = test system: BMP-2, BMP-4, noggin, Shh, VEGF, FGF-1, FGF-2; assay: Surface plasmon resonance (SPR) binding to immobilized heparin binding GFs; set-up: species or system human (Noggin murine); settings: analytes 50-500 nM; GFs immobilized on alginate surface; 25° C.
Procedure: Surface Plasmon Resonance: The binding interactions between PAs (analytes) and growth factors (ligands) were analyzed via surface plasmon resonance (SPR) using a ProteON XPR36 system (Bio-Rad Laboratories). PA samples were thermally annealed as described for Cryo-TEM. PA solutions were spun down, pipetted for homogeneous mixing, and sequentially diluted to appropriate concentrations using Tween buffer (Milli-Q water, 0.05% Tween-20). Lyophilized powders of GFs were reconstituted to 5 μM without any carrier proteins according to the manufacturer's instructions. BMP-2, BMP-4, Shh, VEGF, and FGF-2 were further diluted to 200 nM in ProteOn Acetate Buffer pH 5.5, while FGF-1 was diluted to 200 nM in ProteOn Acetate Buffer pH 4.5. Noggin was diluted to 300 nM in ProteOn Acetate Buffer pH 5.5.
GFs were immobilized on a ProteOn GLC-Chip via amino coupling as described previously, with slight modifications (37). First, the alginate surface was activated with a freshly prepared mixture of 20 mM 1-Ethyl-3-[3-dimethylaminopropyl]carbodiimide hydrochloride (EDC) and 5 mM N-hydroxysulfosuccinimide (Sulfo-NHS) in Milli-Q water (vertical flow cells, 30 μL/min, 3 min). Following, GFs were immobilized on vertical flow cells 1 to 5 by perfusing a freshly prepared 200 nM (or 300 nM) solution over the activated alginate surface (30 μL/min, 5 min). Blank buffer was perfused on vertical cell 6 as a reference. The remaining esters were deactivated with 1 M ethanolamine (30 μL/min, 3 min). The association and dissociation phases were performed at 25° C. in Tween buffer. Prior to each analyte injection, the horizontal flow cells 1 to 6 were regenerated with 10 mM NaOH (100 μL/min, 30 sec) and washed once with Tween buffer (30 μL/min, 3 min). Varied analyte concentrations were injected to horizontal flow cells 1 to 5, with flow cell 6 as a reference (30 μL/min, 5 min), followed by dissociation with Tween buffer (30 μL/min, 10 min). For analysis, SPR sensorgram from the reference flow cell was subtracted from all measurement flow cells. Interaction data were evaluated using the BIAEvaluation 4.1 software. […]

BMP-2 = target: T1, BMP-2 (Homo sapiens, UniProt P12643); assay: BMP-2 stability assay (ELISA) in C2C12 culture; type: cell-based; settings: 75 ng/mL BMP-2; 0, 3, 9, 24 h
T1 construct: purchased Medtronic Sofamor Danek (Minneapolis, Minn.)
T1 sequence (P12643 283-396): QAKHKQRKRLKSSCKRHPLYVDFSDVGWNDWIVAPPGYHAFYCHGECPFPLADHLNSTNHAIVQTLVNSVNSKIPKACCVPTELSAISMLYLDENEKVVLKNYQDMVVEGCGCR
Procedure: BMP-2 Stability Assay: C2C12 cells were seeded at 150,000 cells/mL (500 μL/well in a 48-well plate) and incubated overnight. Following, the media was replaced with treatment media (75 ng/mL BMP-2 in the presence/absence of PA 1, PA 4, and monosaccharide 1. The media was collected at 0, 3, 9, and 24 h and stored at −80° C. prior to BMP-2 quantification. In addition, the cell monolayers were lysed at the indicated time with a 100 μL of M-PER Mammalian Protein Extraction Reagent, supplemented with 1×Halt Protease Inhibitor Cocktail, and also stored at −80° C. prior to BMP-2 quantification. The amount of BMP-2 present in the media and cell extracts was assayed using a BMP-2 Quantikine ELISA kit (R&D Systems) according to the manufacturer's specifications.

[2] = test system: FGF-2 signaling in BaF3-FR1C cells; assay: BaF3-FR1C cell proliferation assay with FGF-2; type: cell-based; settings: FGF-2 10 ng/ml; 2 days
Procedure: BaF3-FR1C Cell Proliferation Assay: Upon reception of a frozen vial, BaF3-FR1C cells were cultured and expanded in growth media as recommended (40). The cells were grown in RPMI1640 medium with 2 mM L-glutamine (Thermo Fisher) containing 10% newborn bovine calf serum (Thermo Fisher), 0.5 ng/mL of recombinant mouse IL-3 (Peprotech), 600 μg/mL of G418 sulfate (Thermo Fisher), 50 nM of 2-mercaptoethanol (Thermo Fisher), and 100 unit/mL penicillin and 100 μg/mL streptomycin (Thermo Fisher) at 37° C., 5% CO2. The medium was changed every 2 days. Experiments were performed using with 1-3 week old passaged cells. The BaF3-FR1C cells were first assessed with the CyQUANT direct cell proliferation assay (Thermo Fisher), but no change in fluorescent signal was observed from a 0 to 2 day old culture in growth conditions although the growth was evident under the microscope. […] For assays testing the effect of heparin and glycopeptide nanofibers FGF-2 induced proliferation, 10,000 cells/well were plated in 50 μl of growth media without G148 sulfate and recombinant mouse IL-3 (NT media) in a 96-well plate. We then added a 2×concentrated mixture of FGF-2 with heparin or glycopeptide nanofibers in the same NT media. […] The absorbance was read at 490 nm in a Cytation 3 instrument (BioTek) and cell growth was compared to cells in NT media. […]

[3] = Zeta potential measurements; type: physicochemical
Procedure: Zeta Potential Measurements: Zeta (ζ) potential was measured using a Malvern Zetasizer Nano ZS (n=3). PA samples were thermally annealed as described for Cryo-TEM. Following, PAs were diluted to 0.5 mM in DMEM. PA solutions were water-bath sonicated for 1 min prior to zeta potential measurement. Background reading from DMEM alone was subtracted from the final measurements.

Factor Xa = settings: compared to heparin
Procedure: Anticoagulation Assay: PA 1 was dissolved to 5 mM in saline with 5 mM CaCl2), pH 7.2, thermally annealed at 80° C. for 30 min and slowly cooled to room temperature. The PA solution was spun down, pipetted for homogeneous mixing, and diluted to 0.25, 2.5, 25, and 100 μM in saline with 2 mM CaCl2). The anticoagulant activities of PA 1 and heparin were assessed by monitoring the activity of Factor Xa, a coagulation cascade enzyme inhibited by heparin-activated antithrombin. The assay was performed using the COATEST Heparin Kit (Chromogenix) according to the manufacturer's instructions. Values were represented as the relative bioactivity of Factor Xa when compared to treatment group treated with saline only.

3,4,6S-GlcNAc PA (VVAAEEK) [PA 1]
binding to heparin binding GFs (SPR) [1]: strong concentration-dependent binding | BMP-2 stability in cell culture media (BMP-2): improved BMP-2 stability | FGF-2 mediated cell proliferation [2]: improved | zeta potential / net charge of nanofibers [3]: highest net negative charge | anticoagulation activity (Factor Xa activity) (Factor Xa): minimal anticoagulation activity
